# Test results as given in US20260055186A1 (REPERTOIRE IMMUNE MEDICINES, published 2026).
# Where a chain is given by its changes, count along the chain named.
# B1: humanized 02A01-VH6-VK2 (antibody, human IgG1, V domains shown)
# VH: EVQLVQSGAEVKKPGATVKISCKASGYTFTDFTMHWVQQAPGKGLEWIGLVNPNNGGNIYAEKFQGRVTLTVDTSTSTAYMELSSLRSEDTAVYYCGRVPLYTSHGMDYWGQGTLVTVSS
# VL: EIVLTQSPATLSVSPGERATISCRASESVDSYDINSMHWYQQKPGQAPRLLIYRASHLQSGIPARFSGSGSRTDFTLTISSVEPEDFATYYCQQSNEDPLTFGQGTKLEIK
# notes: human IgG1 format; also called 02-VH6/VK2
# B2: humanized 02A01-VH6-VK3 (antibody, human IgG1, V domains shown)
# VH: B1 VH
# VL: B1 VL with V13L, V82L
# notes: human IgG1 format; also called 02-VH6/VK3
# B3: humanized 02A01-VH3-VK3 (antibody, human IgG1, V domains shown)
# VH: B1 VH with V18L, V68A, A92S
# VL: B1 VL with V13L, V82L
# notes: human IgG1 format; also called 02-VH3/VK3
# B4: humanized 02A01-VH6-VK1 (antibody, human IgG1, V domains shown)
# VH: B1 VH
# VL: B1 VL with A47P
# notes: human IgG1 format; also called 02-VH6/VK1
# B5: humanized 02A01-VH5-VK1 (antibody, human IgG1, V domains shown)
# VH: B1 VH with V18L, F32Y, T33Y, A61N, E62Q, K63N, Q65K, V68A, A92S
# VL: B1 VL with A47P
# notes: human IgG1 format; VH5 has the HCDR1 of the top human germline hit
# B6: humanized 02A01-VH5-VK3 (antibody, human IgG1, V domains shown)
# VH: B1 VH with V18L, F32Y, T33Y, A61N, E62Q, K63N, Q65K, V68A, A92S
# VL: B1 VL with V13L, V82L
# notes: as for B5
# B7: humanized 02A01-VH5-VK2 (antibody, human IgG1, V domains shown)
# VH: B1 VH with V18L, F32Y, T33Y, A61N, E62Q, K63N, Q65K, V68A, A92S
# VL: B1 VL
# notes: as for B5
# B8: humanized 03A01-VH4-VK4 (antibody, human IgG1, V domains shown)
# VH: EVQFQESGPGLVKPSQTLSLTCTVSGYSITSDFAWNWIRQPPGKGLEWIGYISYSGDTYYNPSLKSRVTISRDTSKNQFSLKLSSVTAADTAVYYCTIRGYYTDSAFVFWGQGTLVTVSS
# VL: DIQMTQSPSTLSVSVGDRVTITCRASQSISSWLAWYQQKPGKAPKLLISGATSLETGVPSRFSGSGSGLEYTLTISSLQPDDFATYYCQQYWNSPFTFGQGTKLEIK
# notes: human IgG1 format; VK4 has the LCDR1 of the top human germline hit
# B9: humanized 03A01-VH3-VK4 (antibody, human IgG1, V domains shown)
# VH: B8 VH with I49M, Y59N
# VL: B8 VL
# notes: as for B8
# B10: humanized 03A01-VH2-VK4 (antibody, human IgG1, V domains shown)
# VH: B8 VH with I49M, Y59N, K65R, V68I
# VL: B8 VL
# notes: as for B8
# B11: humanized 03A01-VH1-VK4 (antibody, human IgG1, V domains shown)
# VH: B8 VH with S25T, G45E, I49M, Y59N, K65R, V68I, V93T
# VL: B8 VL
# notes: as for B8
# B12: humanized 03A01-VH2-VK2 (antibody, human IgG1, V domains shown)
# VH: B8 VH with I49M, Y59N, K65R, V68I
# VL: B8 VL with R24K, Q27D, S28H, S30N, S31N
# notes: human IgG1 format; also called 03-VH2/VK2
# B13: humanized 03A01-VH2-VK3 (antibody, human IgG1, V domains shown)
# VH: B8 VH with I49M, Y59N, K65R, V68I
# VL: B8 VL with V13A, R24K, Q27D, S28H, S30N, S31N
# notes: human IgG1 format; also called 03-VH2/VK3
# B14: humanized 03A01-VH1-VK3 (antibody, human IgG1, V domains shown)
# VH: B8 VH with S25T, G45E, I49M, Y59N, K65R, V68I, V93T
# VL: B8 VL with V13A, R24K, Q27D, S28H, S30N, S31N
# notes: human IgG1 format; also called 03-VH1/VK3
# B15: humanized 03A01-VH3-VK1 (antibody, human IgG1, V domains shown)
# VH: B8 VH with I49M, Y59N
# VL: B8 VL with P8S, V15L, R24K, Q27D, S28H, S30N, S31N, K45R
# notes: human IgG1 format; also called 03-VH3/VK1
# B16: humanized 03A01-VH3-VK3 (antibody, human IgG1, V domains shown)
# VH: B8 VH with I49M, Y59N
# VL: B8 VL with V13A, R24K, Q27D, S28H, S30N, S31N
# notes: human IgG1 format; also called 03-VH3/VK3
# B17: 05F10 (antibody, V domains shown)
# VH: EVQLVESGGGLVKPGGSLKLSCAASGFTFSSFAMSWVRQTPAKRLEWVATISSGDLSANYPDTVKGRFTISRDNAKNTLYLQMSSLRSEDTAMYYCTRPPFYFSNDWFAYWGQGTLVTVSA
# VL: DVVMTQTPLSLPVSLEDQASISCRSSQSLEHSNGNTYLHWYLQKPGQSPRLLIYKVSNRFSGVPDRFSGSGSGTDFTLKISRVEAEDLGVYFCSQSTHVPFTFGSGTKLEIK
# notes: Recombinantly produced murine anti-CD8 IgG
# Biological target: T1, human CD8α/β (human, UniProt P01732 22-182; P10966 22-170)
# T1 construct: Soluble heterodimer used in SPR and in the Carterra binning (there printed only as CD8α/β); also called hCD8α/β
# T1 sequence (P01732 22-182, chain 1 of 2): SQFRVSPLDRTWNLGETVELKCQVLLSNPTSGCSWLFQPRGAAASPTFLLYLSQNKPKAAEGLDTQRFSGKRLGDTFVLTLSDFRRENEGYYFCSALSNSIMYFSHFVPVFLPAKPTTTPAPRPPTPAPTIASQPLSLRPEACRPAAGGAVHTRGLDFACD
# T1 sequence (P10966 22-170, chain 2 of 2): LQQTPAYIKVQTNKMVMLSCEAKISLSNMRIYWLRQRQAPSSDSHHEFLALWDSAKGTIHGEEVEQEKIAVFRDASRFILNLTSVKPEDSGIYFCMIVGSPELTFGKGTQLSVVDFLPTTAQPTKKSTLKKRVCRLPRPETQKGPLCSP
# Assay: SPR, antibody captured on Protein A chip, hCD8α/β as analyte
# Experimental: (§1) The binding affinities of six of the humanized anti-CD8 antibodies to human CD8 were also determined by surface plasmon resonance (SPR). Briefly, equilibrium dissociation constants for human CD8α/β were determined using a real-time SPR biosensor using a Protein A Sensor Chip (Cytiva) to capture purified anti-CD8 monoclonal antibodies at a concentration of 0.5 nM. SPR binding studies were performed in a buffer composed of Phosphate buffered saline, pH 7.2 containing 0.05% v/v Surfactant P20 (PBS-P20 buffer). Different concentrations of hCD8α/β prepared in PBS-P20 running buffer (ranging from 500 nM to 7.8 nM, 2-fold dilutions) were injected over the anti-CD8 monoclonal antibody captured surface. Association of hCD8α/β to the captured monoclonal antibody was monitored for 400 seconds and the dissociation of hCD8α/β in PBS-P20 running buffer was monitored for 600 sec. All of the binding kinetics experiments were performed at 25° C. Kinetic association (kₐ) and dissociation (kd) rate constants were determined by fitting the real-time sensorgrams to a 1:1 binding model using Scrubber 2.0c curve fitting software.
row,Fold Change to Parental Calculated KD [fold],Binder
1,1.79,B1
2,2.12,B2
3,2.37,B3
4,1.71,B4

# Biological target: T1, human CD8α/β
# Assay: SPR, antibody captured on Protein A chip, hCD8α/β as analyte, 1:1 fit
# Experimental: as §1
row,Kd [nM],Binder
1,16.6,B1
2,19.6,B2
3,22,B3
4,15.9,B4

# Biological target: T2, human CD8 on human T cells (human, UniProt P01732 22-235)
# T2 construct: whole, on cells; the antibodies were raised against human CD8 alpha; also called CD8 on human CD8+ T cells; hCD8
# T2 sequence (P01732 22-235): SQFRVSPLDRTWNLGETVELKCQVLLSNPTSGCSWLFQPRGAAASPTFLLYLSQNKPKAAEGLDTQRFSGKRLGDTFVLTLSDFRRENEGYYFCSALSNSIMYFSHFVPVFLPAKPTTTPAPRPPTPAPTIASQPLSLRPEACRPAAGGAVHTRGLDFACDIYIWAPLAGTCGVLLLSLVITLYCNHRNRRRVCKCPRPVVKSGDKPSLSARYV
# Assay: flow cytometry, human CD8+ T cells, antibody at 0.2 nM, anti-human IgG detection (MFI AF647)
# Experimental: (§2) The 24 humanized 02A01-derived anti-CD8 antibodies (excluding 02A01-VK3(D30E/N35Q)) were screened for their ability to bind human CD8 by evaluating binding to CD8+ T cells. The non-humanized parent (“02-Parent”) and the non-humanized parent comprising a heavy chain M39L liability mutation (“02-Parent-VH-M39L”) were used as controls. […] Cells were washed with 1×phosphate buffered saline (PBS) containing 1 mg/mL bovine serum albumin (PBS/BSA) and then stained with a 1:100 dilution of DyLight650-conjugated anti-human IgG H+L polyclonal antibody (ThermoFisher cat. no. Sa5-10129) in PBS/BSA. Following a 20-30 min incubation at 4° C., the cells were washed once with PBS/BSA, and then resuspended in PBS/BSA for analysis on a FACSCelesta using Diva software (BD Biosciences). The resulting data were analyzed using FlowJo. Data were quantified and reported as Max fluorescence intensity (MFI) of human IgG-Fc. […] Complete replacement of the HCDR1 (antibodies comprising VH5) eliminated binding to the CD8+ T cells.
row,binding result,Binder
1,no binding (tested: 0.2 nM),B5
2,no binding (tested: 0.2 nM),B6
3,no binding (tested: 0.2 nM),B7

# Biological target: T2, human CD8 on human T cells
# Assay: flow cytometry, human CD8+ T cells, antibody at 5 nM, anti-human IgG detection (MFI AF647)
# Experimental: (§3) The 16 above-referenced humanized 03A01-derived anti-CD8 antibodies were screened for their ability to bind human CD8 by evaluating binding to CD8⁺ T cells. The non-humanized parent (“03-Parent”) and the non-humanized parent comprising a heavy chain D64E liability mutation (“03-Parent-VH-D64E”) were used as controls. […] Cells were washed with 1×phosphate buffered saline (PBS) containing 1 mg/mL bovine serum albumin (PBS/BSA) and then stained with a 1:100 dilution of DyLight650-conjugated anti-human IgG H+L polyclonal antibody (ThermoFisher cat. no. Sa5-10129) in PBS/BSA. Following a 20-30 min incubation at 4° C., the cells were washed once with PBS/BSA, and then resuspended in PBS/BSA for analysis on a FACSCelesta using Diva software (BD Biosciences). The resulting data were analyzed using FlowJo. Data were quantified and reported as Max fluorescence intensity (MFI) of human IgG-Fc. […] Complete replacement of the LCDR1 (antibodies comprising VK4) eliminated binding to the CD8⁺ T cells.
row,binding result,Binder
1,no binding (tested: 5 nM),B8
2,no binding (tested: 5 nM),B9
3,no binding (tested: 5 nM),B10
4,no binding (tested: 5 nM),B11

# Biological target: T2, human CD8 on human T cells
# Assay: flow cytometry on human CD8+ T cells, titration
# Experimental: as §2
# (§4) Binding to human CD8+ T cells was tested at 7 serial 5-fold dilutions of each tested humanized 02A01 variant (from 50 nM to 3.2 pM). The resulting data were analyzed using FlowJo.
Fold Change to Parental Apparent KD [fold],Maximum CD8+ T cell Binding (MFI),Binder
1.68,2770,B1
1.51,2540,B2
1.58,2540,B3
1.02,2620,B4

# Biological target: T2, human CD8 on human T cells
# Assay: flow cytometry on human CD8+ T cells, titration
# Remark: another data set of the same source
# Experimental: as §3
# (§5) The binding affinities of five of the above-referenced humanized anti-CD8 antibodies to human CD8 were determined by evaluating binding to CD8 human T cells using the method described above. Binding to human CD8+ T cells was tested at 7 serial 5-fold dilutions of each humanized 03A01 variant (from 50 nM to 3.2 pM). The resulting data were analyzed using FlowJo.
row,Fold Change to Parental Apparent KD [fold],Binder
1,2,B12
2,2.1,B13
3,1.7,B14
4,1.8,B15
5,2.1,B16

# Biological target: T2, human CD8 on human T cells
# Assay: flow cytometry on human CD8+ T cells, titration, apparent KD
# Experimental: as §2, §4
row,Kd [nM],Binder
1,0.096,B1
2,0.089,B2
3,0.09,B3
4,0.058,B4

# Biological target: T2, human CD8 on human T cells
# Assay: as above
# Remark: another data set of the same source
# Experimental: as §3, §5
row,Kd [nM],Binder
1,1.84,B12
2,1.91,B13
3,1.6,B14
4,1.65,B15
5,1.98,B16

# Biological target: T3, cynomolgus monkey CD8 on cynomolgus cells (cynomolgus monkey)
# T3 construct: whole, on cells; also called cynomolgus CD8
# Assay: flow cytometry on cynomolgus CD3+ T cells, apparent KD, 4PL fit
# Experimental: (§6) The amino acid sequences of the resulting murine anti-CD8 antibodies 02A01, 03A01, 04D08, 05F10, and 11F05 are provided in Tables 1-3 herein above. These antibodies were recombinantly produced. Their binding affinity to CD8 expressed on the cell surface was measured by flow cytometry, and their respective binding affinities are reported in Table 8 and Table 9. Briefly, human or cynomolgus monkey CD3⁺ T cells were incubated with […] of anti-CD8 antibodies (from 250 nM to […]) for 30 minutes. Following the incubation, unbound antibodies were washed away, and the bound antibodies were detected with a AlexaFluor-647-labeled anti-human Fc detection antibody. The median fluorescence intensity of AlexaFluor-647 on the live cells was used to evaluate anti-CD8 antibody levels on the cell surface. Binding affinity (KD) values for anti-CD8 antibody T cell binding were determined with GraphPad Prism 7.0 using 4-Parameter logistic regression.
row,Kd [nM],Binder
1,39.8,B17

# Biological target: T2, human CD8 on human T cells
# Assay: flow cytometry on human CD3+ T cells, apparent KD, 4PL fit
# Experimental: as §6
row,Kd [nM],Binder
1,0.242,B17
